Test [1] deals with T1, FAP (Homo sapiens, UniProt Q12884).
T1 sequence (Q12884 1-760): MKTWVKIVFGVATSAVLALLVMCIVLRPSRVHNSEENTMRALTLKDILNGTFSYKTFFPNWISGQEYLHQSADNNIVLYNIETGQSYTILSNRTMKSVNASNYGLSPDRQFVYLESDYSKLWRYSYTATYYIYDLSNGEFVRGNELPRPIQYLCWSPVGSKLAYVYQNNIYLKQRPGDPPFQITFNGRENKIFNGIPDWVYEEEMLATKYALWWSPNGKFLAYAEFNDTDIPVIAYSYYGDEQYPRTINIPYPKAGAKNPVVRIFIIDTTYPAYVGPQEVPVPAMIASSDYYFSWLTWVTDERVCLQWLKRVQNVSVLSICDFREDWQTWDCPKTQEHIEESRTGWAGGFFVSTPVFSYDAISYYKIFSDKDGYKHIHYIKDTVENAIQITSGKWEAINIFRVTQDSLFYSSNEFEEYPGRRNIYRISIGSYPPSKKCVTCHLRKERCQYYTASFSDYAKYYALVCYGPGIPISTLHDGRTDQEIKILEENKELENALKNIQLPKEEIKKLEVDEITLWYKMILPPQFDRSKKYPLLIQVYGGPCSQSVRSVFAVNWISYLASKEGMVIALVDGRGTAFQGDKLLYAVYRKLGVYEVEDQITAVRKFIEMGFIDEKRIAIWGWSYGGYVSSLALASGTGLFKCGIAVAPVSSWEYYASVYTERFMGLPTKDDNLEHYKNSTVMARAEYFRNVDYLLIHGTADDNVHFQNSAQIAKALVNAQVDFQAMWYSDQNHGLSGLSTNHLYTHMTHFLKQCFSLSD
The conditions noted are these: previously demonstrated; cited from earlier work.

Another test deals with all cell lines tested. Description: Cytotoxicity, average IC50 over cell lines. The format is cell-based.
The target of test [2] is T2, FAP (Homo sapiens, UniProt Q12884).
T2 construct: the extracellular domain of FAP was cloned with a His-6 tag; made in house
T2 sequence (Q12884 26-760 limits assumed): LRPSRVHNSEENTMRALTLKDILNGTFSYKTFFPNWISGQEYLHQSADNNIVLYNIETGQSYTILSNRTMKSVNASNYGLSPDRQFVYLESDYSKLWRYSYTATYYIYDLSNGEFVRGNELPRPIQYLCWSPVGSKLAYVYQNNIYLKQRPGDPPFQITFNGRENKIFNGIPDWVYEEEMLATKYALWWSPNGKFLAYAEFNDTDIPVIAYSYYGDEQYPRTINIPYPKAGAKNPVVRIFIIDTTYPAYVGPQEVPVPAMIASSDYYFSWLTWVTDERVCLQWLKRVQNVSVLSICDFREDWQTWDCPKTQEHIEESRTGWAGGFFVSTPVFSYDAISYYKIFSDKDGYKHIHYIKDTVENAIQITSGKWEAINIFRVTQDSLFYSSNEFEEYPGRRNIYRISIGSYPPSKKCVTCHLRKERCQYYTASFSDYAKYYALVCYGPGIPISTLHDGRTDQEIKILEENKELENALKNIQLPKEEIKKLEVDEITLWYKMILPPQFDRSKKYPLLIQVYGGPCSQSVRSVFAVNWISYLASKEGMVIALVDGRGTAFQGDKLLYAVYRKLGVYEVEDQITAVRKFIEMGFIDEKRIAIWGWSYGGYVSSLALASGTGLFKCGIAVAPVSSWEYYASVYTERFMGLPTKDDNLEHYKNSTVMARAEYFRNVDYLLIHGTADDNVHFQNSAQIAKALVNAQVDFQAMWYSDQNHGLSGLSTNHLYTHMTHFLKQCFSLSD
In words: FAP dipeptidyl peptidase assay. The format is biochemical. The procedure: Quantitative assay for dipeptidyl peptidase activity were developed using Ala-Pro-AFC as the substrate as described by Park et al^18. Purified protein was mixed with 5-10-fold volumes of reaction buffer (100 mM NaCl, 100 mM Tris, pH 7.8), and added to an equal volume of 0.5 mM Ala-Pro-AFC in reaction buffer followed by incubation for 1 h at 37° C. Release of free AFC was measured in a DTX 880 Multimode Detector (Beckman, Fullerton, Calif.) using the 395 nm excitation/530 nm emission filter set.

The target in test [3] is T2, FAP. In words: FAP gelatinase and collagenase assay with quenched (DQ) proteins. The format is biochemical. The conditions noted are these: 100 μgs/ml protein substrate. The procedure: Quenched gelatin and collagen conjugates were used to detect and confirm FAP's gelatinase and collagenase activity. DQ™ Gelatin from pig skin, DQ™ collagen, type IV from human placenta, DQ™ collagen, type I from bovine skin, all as fluorescent conjugates (Invitrogen, Rockville, Md.) were digested with FAP and digestion monitored on a fluorescence plate reader. Protein substrates were dissolved in reaction buffer (100 mM NaCl, 100 mM Tris, pH 7.8) to a final concentration of 100 μgs/ml. Trypsin digestion was used as a positive control. As a negative control the His tagged extra cellular domain of Prostate Specific Membrane Antigen (PSMA), which was similarly purified from S2 cells under the same conditions as FAP. Fluorescent quenched DQ™ Bovine Serum Albumin was used as a negative control for FAP protease activity.
Quenched forms of Gelatin and Collagen were used to confirm the gelatinase and collagenase activity of recombinant FAP. Quenching is achieved by labeling these proteins with the fluorophore FITC such that fluorescence signal from the intact protein is minimal due to is self-quenching by the fluorphore. Protein digestion releases FITC-labeled fragments that result in measurable increase in overall fluorescence signal from the reaction mixture. […] On a relative basis gelatin was digested ˜10-fold better by FAP than collagen I. MALDI analysis of digested fragments was performed to confirm hydrolysis.

The target of test [4] is T2, FAP. In words: LC-MS/MS cleavage map of FAP digest of 8.5 kDa recombinant human gelatin. The format is biochemical. The conditions noted are these: 8.5 kDa gelatin digest; peak with lowest ion current assigned 1.0. The procedure: (§1) Human collagen I (Becton Dickinson, Franklin Lakes, N.J.) and recombinant human gelatins of 100 KDa and 8.5 KDa (Fibrogen, San Francisco, Calif.) were dissolved in reaction buffer to a final concentration of 100-300 μg/ml. 0.5-1 μg of FAP was added per 100 μgs of protein substrate. Digestion was done for 4-6 hrs at 37° C. As a positive control trypsin digestion was used. As a negative control, protein solutions were incubated either with BSA or buffer only. Peptide fragments of a size <30 KDa were purified using 30 KDa Microcon spin filter (Millipore, Billerica, Mass.).
(§2) Peptides obtained from FAP/gelatin digests were dried using a speedvac (Eppendorf), resuspended in LC/MS loading buffer (3% ACN, 0.1% formic acid), and analyzed using nano-flow LC/MS/MS on an Agilent 1100 series nano-LC system (Agilent) coupled to an LCQ Duo ion trap mass spectrometer (ThermoFinnigan). Peptides were pre-concentrated on a 5 mm Zorbax C18 trap column (Agilent) and then eluted onto a 100×0.075 mm custom-packed Biobasic C18 (ThermoElectron) reversed phase capillary column connected to a laser-pulled electrospray ionization emitter tip (New Objective) at a flowrate of 300 nl/min Peptides were eluted the nanospray source of the LCQ (Proxeon, Denmark) using the following gradient: 0% B at 0 min, 5% B at 8 min, 45% B at 50 min, 90% B at 55 min, 90% B at 60 min (B=0.1% formic acid in acetonitrile) at a spray voltage of 2.5 kV. The LCQ was operated in data-dependent mode using the Xcalibur software (ThermoFinnigan) in which every MS scan (400-1800 m/z) was followed by MS/MS scans (400-1800 m/z) on the 3 most intense ions using an isolation window of ±1.5 Da. Ions selected for MS/MS fragmentation were dynamically excluded for 30 s.
(§3) MS/MS data were searched against a collagen FASTA database using the SEQUEST search algorithm built into the Bioworks Browser (ThermoFinnigan) allowing for the variable modification of Methionine oxidation. Peptides were initially filtered in a charge dependent manner using an XCorr filter of 1.5, 2, and 2.5 for singly, doubly, and triply charged peptides. All MS/MS spectra used to identify peptides were manually inspected for validation of y and b-ion series. To quantify the relative abundance of each identified peptide we compared the ion current for each of the observed peptide parent ions from the MS spectra. The contribution of each parent ion to the total ion current was extracted and integrated over the peptide elution peak.
As Collagen I and Gelatin are currently the only known protein substrates for FAP, we needed to develop an alternative method to identify FAP-selective cleavage sites within these proteins. […] The masses of fragments <3 KDa were purified for MALDI spectra and again analyzed by FindPept tool. […]

Test [5] addresses T2, FAP. In words: LC-MS/MS cleavage map of FAP digest of 100 kDa recombinant human gelatin. In kind it is biochemical. The conditions noted are these: 100 kDa gelatin digest. The method, then: as §1, §2, §3
To resolve each particular mass fragment a Liquid Chromatograpy (LC) and Tandem mass spectroscopy (MS-MS) [LC-MS-MS] method was developed. Using this method, peptide fragments from FAP digests of the 8.5 kDa and 100 kDa recombinant gelatin were time-resolved by nano reverse phase LC (FIGS. 12 and 14) and then sequenced using an ion trap mass spectrometer operating in MS/MS mode. Initial methodological issues were worked out using the 8.5 kDa fragment before analyzing the entire 100 kDa protein. MS/MS spectra were searched against the 8.5 kDa and 100 kDa gelatin sequences using the SEQUEST algorithm with no cleavage specificity. Most of the identified cleavage sites in both sized gelatins occurred after Proline. However, FAP cleavage sites in these gelatins were not restricted to Proline alone. FAP was also found to cleave after Ala (e.g. A/A, A/G, A/P, A/R), Asp (e.g. D/G, D/T), Gly (e.g. G/A, G/E, G/L, G/Q, G/P, G/V), Glu (i.e., E/P), Lys (i.e., K/A, K/G), Ser (e.g. S/P) and Val (e.g. V/G).
To identify the most preferentially cleaved sites, we relatively quantified the abundance of each of the identified peptides by integrating the ion current generated by each peptide throughout the chromatogram. After identification of a peptide from a MS/MS spectrum, we extracted the ion current for the parent mass of the ion from the total MS ion chromatogram using a 1.5 Da tolerance window, and then integrated under the peak (FIGS. 12 and 14). […]

Peptide text beside a SMILES is read from it.

Consider fibronectin, for which the “cleavage by FAP” value on FAP [1] is “not”.
Usually IC50 stands for the concentration that inhibits the measured activity by half. High values mean weaker potency in that assay, low ones greater potency in that assay. In turn, `C/C=C(/C)C(=O)O[C@H]1C(C)=C2[C@H]([C@@H]1OC(=O)CCCCCCC)[C@@](C)(OC(C)=O)C[C@H](OC(=O)CCC)[C@@]1(O)[C@H]2OC(=O)[C@@]1(C)O` [thapsigargin] gave an IC50 with all cell lines tested of 0.1 nM.
In the test on all cell lines tested, `CC(=O)O[C@H]1C(=O)[C@@]2(C)[C@H]([C@H](OC(=O)c3ccccc3)[C@]3(O)C[C@H](OC(=O)[C@H](O)[C@@H](NC(=O)c4ccccc4)c4ccccc4)C(C)=C1C3(C)C)[C@]1(OC(C)=O)CO[C@@H]1C[C@@H]2O` [paclitaxel] came in with an IC50 of 10 nM.
Consider `C[C@H](N)C(=O)N1CCC[C@H]1C(=O)Nc1ccc2c(C(F)(F)F)cc(=O)oc2c1` [Ala-Pro-AFC] (HELM PEPTIDE1{A.P.[O=c1cc(C(F)(F)F)c2ccc(N[*:1])cc2o1]}$$$$V2.0), for which the “cleavage of dipeptide substrate by purified FAP” value on FAP [2] was “same kinetic parameters as previously described”.
Regarding “Collagen I: FITC-quenched DQ collagen I from bovine skin; in b297 Collagen I of the cited literature”, the “cleavage by FAP” value in the test with FAP [1] was “could cleave”. In addition, in the test with FAP [3], the “hydrolysis of FITC-quenched protein by FAP” value is “readily hydrolyzed”.
For “P.AGQDGRPGPPGPPGARGQAG.V: FAP cleavage fragment of 100 kDa and 8.5 kDa recombinant human gelatin, MH+ 1799.89”, the “Normalized Ion Current” value with FAP [4] was 1.0. Also, the Occurences with FAP [5] was 1. In addition, the Percentage with FAP [5] (share of all occurrences) amounted to 0.48.
For the compound “Collagen IV: FITC-quenched DQ collagen IV from human placenta; in b297 Collagen IV of the cited literature”, in the test with FAP [1], the “cleavage by FAP” value is “not”. Further, in the test with FAP [3], the “hydrolysis of FITC-quenched protein by FAP” value is “not all digested”.

These data come from patent US20140087991A1, “PEPTIDE PRODRUGS” (The Johns Hopkins University, priority 2006, published 2014).
